Test results reported in the nanobody polyreactivity screen of Harvey et al. (2022).

Assay: yeast display, Sf9 membrane polyspecificity reagent, FACS + sequencing; frameworks hold sequencing errors
Procedure, shortened: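 Nanobodies came from a synthetic yeast display library in Saccharomyces cerevisiae BJ5465, induced with galactose for 36–48 hours and stained for 1 hour at 4 °C with 10% biotinylated, detergent-solubilized Sf9 membrane reagent. Cells were enriched on streptavidin microbeads and then FACS-sorted, with low and high (top ~1%) gates set on anti-HA fluorescence for expression and streptavidin fluorescence for reagent binding. Each polyreactivity label reflects the gate a clone came from. Genes were amplified by colony PCR, sequenced by MiSeq 2 × 250 and filtered by CDR length.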

Sequence	polyreactivity (PSR sort gate)
QVQLVESGGGLVQAGGSLRLSCAASGRTFQWYTMGWYRQAPGKERELVAAISWSGTSTYYADSVKGRFTISRDIAKNTVYLQMNILNPEDTAVYYCAAEVIGRYYRLDYWGQGPQVTVSS	low polyreactivity
QVQLVESGGGLVQAGGSLRLSCAASGRTFSVNDMGWYRQAPGKERELVAAISFSGGSTYYADSVKGRFTISRDNAKNTVYLQMNSLKPEDTAVYYCAAEAYPSWFYVITGFGIYDYWGQGTQVTVSS	high polyreactivity
QVQLVESAGGLVQAGGSLPLSCAASGRTFQTNLMGWYRQAPGKERELVAAITLSGGSTNYADSVKVRFTISRDNAKKTVYLQMNSLKPEDTAVYYCNAERRYRHQLTPHYEYDYWGKGTQVTVSS	low polyreactivity
QVQLEESGGGLVQAGGRLRLSCSASGFICGSNAMGWYRQAPGKERELVAAISARGGSTYYADSVKGRFTISRDNAKNPVYLQMNSLKPEDTAVYYCNTGTSGRFLSFGNFDYWGQGTQVTVSS	high polyreactivity
QVQLVESGGGLVQAGGSLRLSCAASGSTSDPYGMGWYRQAPGKERELVAAISSNGDSTYYADSVKGRFTLSRDNAKNTVYLQMNSLKPEDTAVYYCAARILYSYHLYDYWGQGTQVTVSS	high polyreactivity
QFQLVESGGGLVQAGGSLRLSCAASGNTFYGYARGWYRQAPGKDRELVATMTGSGGDTYYADSVKGRFTISRDNANYTVYLPMNSLKPEDTAVYYCNAVEYYGGYPGTDYSYLAYNYWGQGTKVTVSS	low polyreactivity
QVQLVESVGGLVQAGGSLRLSCAASGRTFYTNAMGWYRQAPGKERELVAAITRGTSTSYADSVKGRFTISRDNAKNTVYLQMNSLKPEDTAVYYCAARGTQYSPSKSWFYYWGQGTQVTVSS	high polyreactivity
QVQLVESGGRLVQAGGSLRLSCAASGSTFVQNAMGWYRQATGKERELVAAISKSGGRTYYADSVKGRFTISRDNAKNTVYLQMNSLKPEDTAVYYCAAVTVASPTRMDYWGQGTQVTVSS	high polyreactivity
QVQLVESGGGLVQAGGSLRLSCAASGRTLYYNTMGWYRQAPGKERELVASIRWDGGSTNYADSVNGRFTISRDNAKNTVYLQMNSLKPEDTAVYYCNADPGWTELEYDYWGQGTQVTVSS	low polyreactivity
QVQLVESGGALVQAGGSLRLSCAASGLIFYYYAMGWNRPAPGKERELVAAISGGGSTYYADSVKGRFTISRDNAKNTVYLQMNSLKPEDTAVYYCAASFRYPSWLYDYWGQGTQVTVSS	low polyreactivity
QVQLVESGGGLVQAGGSLRLSCAASGRTFSGNAMGWYRQAPGKERELVAGISTSGGSTYYADSVKGRFTISRDNANNTVYVQMNSLKPEDTAVYYCAADRPGSFTTMDYWGQGSQVTVSS	high polyreactivity
QVLLVESGGGLVQAGGSLRLSCAASGSTLYDYAMGWYRQAPGKETELVAAINGSGGSTYYADSVKGRFTISRDNAKNTVYLQMNSLKPEDTAVYYCNAKRYGFFYWQGDYCGQGTQVTVSS	low polyreactivity
QVQLVESGGGLVQAGGSLRLICAASGIIFHFNDMGWYRQAPGKERELVAAIDSTGSTNYADSVKGRFTISRDNAKNTVYLQMNSLKPEDTAVYYCAVLNHRVDSVLTRYYYWGQGTQVTVSS	low polyreactivity
QVQLVESGGGLVQAGGSLRLSCAASGFTFYYYTMGRYRQAPGKEIELLADISSGDRTYYADSVKGRFTISRDNAKNTVYLQMNSLKPEDTAVYYCAAPAKYYTRFGHYNLNQDYDSWGQGTQVTVSS	low polyreactivity
QVQLVESGGGLVQAGGSLRLSCAASGSTFSRYAMGWYRQAPGKERELVAAITASGGSTYYADSVKGRFTISRDNAKNTVYLQMNRLKPEDTAVYYCAASYQVRYDYWGQGTQVTVSS	high polyreactivity
QVQLVESGGGLVQAGGSLRLSCAASGFTYSLYDMGWYRQAPGKERELVAAISSDGSTNYADSVKGRFTISRDNAKNTVYLQMNSLKPEDTAVYYCAADETFLSYWLNYWGQGTQVTVSS	low polyreactivity
QVQLVESGGGLVQAGGSLRLSCAASGRTFRNYAMGWYRQAPGKERELVAAIRSGVRTYYADSVKGRFTISRDNAKNTVYLQMNSLKPEDTAVYYCAVATGLLYKSHGYWGQGTQVTVSS	low polyreactivity
QVQLVESGGGLVQAGGSLRLSCAASGSTFNDNAMGWYRPAPGKERELVAAIRWSGGSTYYADSVKGRFTISRDNAKNTVYLQMNSLKPEDTAVYYCAASRRYYLTYRYYYWGQGTQVTVSS	high polyreactivity
QVQLVESGGGLVQAGGSLRLSCAASGSIFYRYAMGWYRQAPGKERELVAAISRSGASTYYADSVKGRFTISRDNAKNTVYLQMNSLKPEDTAVYYCNALFSKFTNRYDYWGQGTQVTVSS	high polyreactivity
QVQLVESGGGLVQAGGSLRLSCAASGSTFYYYAMGWYRPAPGKERELVATIDSGTSTYYADSVKGRFTISRDNAKNTVYFQMNSLKPEDTAVYYCAAKTWSWSYGYNYWGQGTLVTVSS	low polyreactivity
QVQLVESGGGLVQAGGSLRLSCAASGGTFYTNVMGWYREAPGKERELVAAITRSGGSTHYADSVKGRFTISRDNAKNTVYLQMNSLKPEDTAVYYCAVGSPYYDGMDYWGQGTQVTVSS	low polyreactivity
QVQLVESGGGLVQAGGSLRLSCAASGRTFVYYAMGWYRQAPGKERELVASISSGGGSTNYADSVKGRFTISRDNAKNTVYLQMNSLKPEDTAVYYCAVDTPRYRYYRTSYDYWGQGTQVTVSS	low polyreactivity

Sequence	polyreactivity (PSR sort gate)
QVQLVESGGGLVQAGGSLRLSCAASGSTLDSYARGWYRQAPGTERELVAVIDTGGTTNYADSVKGRFTISRDNAKNTVYLQMNSLKPEDTAVYYCAADYAYYGYWFEGYDYWGQGTQVTVSS	low polyreactivity
QVQLVQSGGGLVHAGGSLRLSCAASGGTFQRYVMGWYRQAPGKERELVAAISRSGSTYADSVKGRFTISRDNAKNTVYLEMNSLKPEDTAVYYCNTVYPGRDYCKFGYWGQGTQVTVSS	high polyreactivity
QVQLVESAGGLVQAGASLRLSCAPSGSIFRINAMGWYRQAPGKERELVAAISTRSGRTYYADSVKGRFTISRDNAKNTVYLQMYSLNPEDTAVYYCARYRTQASGYGGYDYWGQGTQATVSS	high polyreactivity
QVQLVESGGGLVQAGGSLRLSCAPSGRTFVYYAMGWYRQAPGKERELVASISSGGGSTNYADSVKGRFTISRDNAKNTVYLQMNSLKPEDTAVYYCAVDTPRYRYYRTSYDYWGQGTQGTVSS	low polyreactivity
QVQLVESGGGLVQAGGSLRLSCAASGFTFAYNAMGWYRQAPGKERELDAAINSSGGTTYYADSVKGRFTISRDNAKNTVYLQMNSLKPEDTAVYYCAAVYSTSYSGSFPGYDYWGQGTQVTVSS	low polyreactivity
QVQLVESGGGLVQAGGSLRLTCAASGRTFQYNAMVWYRQAPGKERELVAAISSSGGSTYYADSVKGRFTISRDNAKNTVYLQMNSLKPEDTAVYYCNAYSQSWNFYGDGDYWGQGTQVTVSS	low polyreactivity
QVQLVESGGGLVKAGGSLRLSCAASGFIFNGYAMGWYRQAPGKESELVAAINSGGITHYADSVKGRFTISRDNAKNTVYLQMNSLKPEDTAVYYCAAVRTGYYRQYDYWGQGTQVTVSS	high polyreactivity
QVQLVESGGGLVQAGGSLRFSFAASGINFRFNAMGWYRQAPGKEREFVAAITYSGDSTYYADSVKGRFTISRDNAKNTVFLQMNSLKREDTAVYYCAADYYAISRRIFYYWGQGTQVTVSS	low polyreactivity
QVQLVESGGGLVQAGGSLGLSCAASGFIFVRYAMGWYRQATGKERELVGAITSTGSTYYADSVKGRFTISRDKAKNTVYLQMNSLKPEDTAVYYCAAVSRTSITFGYYAEYDYWGQGTQVTVSS	low polyreactivity
QVQLVESGGGLVQAGGSLRLSCAASGRIFQYNVMGWYRQAPGKERELVAAISSGGNTYYADSVKGRFTISRDNAKNTVYLQMNSLKPEDTAVYYCAADHYVPWPNYDYDYWGQGTQVTVSS	low polyreactivity
QVQLVESGGGLVQAGGSLRLSCAASGSTFSLYGMGWYRQAPGKERELVAAIRRSGGRTYYADSVKGRFTISRDNAKNTVYLQMNSLKPEDTAVYYCAKSVPRYYSKSGLAYEFDYWGQGTQVTVSS	low polyreactivity
QVQLVESGGGLVQAGRSLRLSCAASGIISYRNGMGGYRQAPGKERELVASISKRADSTYYADSVKGRFTISRDNAKNTVYLQLNSLKPEDTAVYYCAARRLITCYGQTHYGYWGQGTQVTVSS	high polyreactivity
QVQLVESGGGLVQAGGSLRLSCAASGFIFRNYAMGWYRQAPGKERELVAGITSSGGRTYYADSVKGRFTISRDNAKNTVYLQMNSLKPEDTAVYYCNIDVLYYRYTSFSNRYYYWGQGTQVTVSS	high polyreactivity
QVQLVESGGGLVQAGGSLRLSCSASGSNFGYYAMGWYRQAPGKERELVASITWTGGSTYYADSVKGRFTISRDNAKNTVYLQMNSLKPEDTAVYYCAAQLEPSYWFWTGYGYWGQGTQVTVSS	high polyreactivity
QVQLEESGGGLVQAGGSLRLSCAASGFTLRGYAMGWYRQAPGKERELVAAINGGGSTYYADSVKGRFTISRDNAKNTVYLQMNSLKPEDTAVYYCAVRIRKTAFRVLRYNYWGQGTQVTVSS	high polyreactivity
QVQLVESGGGLVQAGGSLRLSCAASGSTIRRNAKGWYRQAPGKERELVAAITRRAVSTYYADSVKGRFTISRDNAKNTVYLQMNSLKPEDTAVYYCAADRASYFTYAYGYWGQGTQVTVSS	high polyreactivity
QVQLVESGGGLVQAGGSLRLSCAASGSTFPYNAMGWYRQAPGKERELVAAITSDDTTNYADSVKGRFTISRDNAKNTVYLQMNSLKPEDTAVYYCAAEYRYPYLRGAGDYWGQGTQVTVSS	low polyreactivity
QVQRVESGRGLVQAGGRLRLSCAASGFIFDRNVMGLYRQAPGNERELVAAISSSGGSTYYADSVKGRFTISRDNAKNTVYLQMNSLKPEDTAVYYCNRLAYRNMDYWGQGTQVTVSS	high polyreactivity
QVQLVESGGGLVQAGGSLRLSCAASGFTFRWYAMGWYRPAPGKERELVADISRGGSTNYADSVKGRFTISRDNAKNTVYLQMNSLKPEDTAVYYCAAVVYRATYRVGGYLWYYYWGQGTQVTVSS	high polyreactivity
QVQLVESGGGLVQAGGSLRLSCAASGSIFSSYAMGWSRQAPGKEREFVAAISTGGRTYYADSVKGRFTISRDNAKNTVYLQMNSLKPEDTAVYYCAADGPLPHKVGTHTLDYWGQGTQVTVSS	low polyreactivity
QVHLVESGGGLVQAGGSLRLSCAASGRTFDVYAMGWYRQATGKERQLVATISYRSARTYYADSVKGRFTISRDNAKNTVYLQMNSLKPEDTAVYYCAAYFETWHGFGYWGQGTQVTVSS	high polyreactivity
